Test results from US20210388087A1 (Chugai, published 2021).

B1: H183/L072 VL R29L (antibody, name in Kabat numbering, V domains shown)
VH: QVQLVESGGGLVQPGRSLRLSCAASGFTFSNAWMHWVRQAPGKGLEWVAQIKDKGNAYAAYYAPSVKGRFTISRDDSKNSIYLQMNSLKTEDTAVYYCHYVHYASASTVLPAFGVDAWGQGTTVTVSS
VL: DIVMTQSPLSLPVTPGEPASISCQASQELVHMNLNTYLHWYQQKPGQAPRLLIYKVSNRFPGVPDRFSGSGSGTDFTLKISRVEAEDVGVYYCAQGTSVPFTFGQGTKLEIK
B2: H183/L072 VL R29M (antibody, name in Kabat numbering, V domains shown)
VH: QVQLVESGGGLVQPGRSLRLSCAASGFTFSNAWMHWVRQAPGKGLEWVAQIKDKGNAYAAYYAPSVKGRFTISRDDSKNSIYLQMNSLKTEDTAVYYCHYVHYASASTVLPAFGVDAWGQGTTVTVSS
VL: DIVMTQSPLSLPVTPGEPASISCQASQELVHMNMNTYLHWYQQKPGQAPRLLIYKVSNRFPGVPDRFSGSGSGTDFTLKISRVEAEDVGVYYCAQGTSVPFTFGQGTKLEIK
B3: H183/L072 VL R29N (antibody, name in Kabat numbering, V domains shown)
VH: QVQLVESGGGLVQPGRSLRLSCAASGFTFSNAWMHWVRQAPGKGLEWVAQIKDKGNAYAAYYAPSVKGRFTISRDDSKNSIYLQMNSLKTEDTAVYYCHYVHYASASTVLPAFGVDAWGQGTTVTVSS
VL: DIVMTQSPLSLPVTPGEPASISCQASQELVHMNNNTYLHWYQQKPGQAPRLLIYKVSNRFPGVPDRFSGSGSGTDFTLKISRVEAEDVGVYYCAQGTSVPFTFGQGTKLEIK
B4: H183/L072 VL R29Q (antibody, name in Kabat numbering, V domains shown)
VH: QVQLVESGGGLVQPGRSLRLSCAASGFTFSNAWMHWVRQAPGKGLEWVAQIKDKGNAYAAYYAPSVKGRFTISRDDSKNSIYLQMNSLKTEDTAVYYCHYVHYASASTVLPAFGVDAWGQGTTVTVSS
VL: DIVMTQSPLSLPVTPGEPASISCQASQELVHMNQNTYLHWYQQKPGQAPRLLIYKVSNRFPGVPDRFSGSGSGTDFTLKISRVEAEDVGVYYCAQGTSVPFTFGQGTKLEIK
B5: H183/L072 VL R29S (antibody, name in Kabat numbering, V domains shown)
VH: QVQLVESGGGLVQPGRSLRLSCAASGFTFSNAWMHWVRQAPGKGLEWVAQIKDKGNAYAAYYAPSVKGRFTISRDDSKNSIYLQMNSLKTEDTAVYYCHYVHYASASTVLPAFGVDAWGQGTTVTVSS
VL: DIVMTQSPLSLPVTPGEPASISCQASQELVHMNSNTYLHWYQQKPGQAPRLLIYKVSNRFPGVPDRFSGSGSGTDFTLKISRVEAEDVGVYYCAQGTSVPFTFGQGTKLEIK
B6: H183/L072 VL R29T (antibody, name in Kabat numbering, V domains shown)
VH: QVQLVESGGGLVQPGRSLRLSCAASGFTFSNAWMHWVRQAPGKGLEWVAQIKDKGNAYAAYYAPSVKGRFTISRDDSKNSIYLQMNSLKTEDTAVYYCHYVHYASASTVLPAFGVDAWGQGTTVTVSS
VL: DIVMTQSPLSLPVTPGEPASISCQASQELVHMNTNTYLHWYQQKPGQAPRLLIYKVSNRFPGVPDRFSGSGSGTDFTLKISRVEAEDVGVYYCAQGTSVPFTFGQGTKLEIK
B7: H183/L072 VL R29V (antibody, name in Kabat numbering, V domains shown)
VH: QVQLVESGGGLVQPGRSLRLSCAASGFTFSNAWMHWVRQAPGKGLEWVAQIKDKGNAYAAYYAPSVKGRFTISRDDSKNSIYLQMNSLKTEDTAVYYCHYVHYASASTVLPAFGVDAWGQGTTVTVSS
VL: DIVMTQSPLSLPVTPGEPASISCQASQELVHMNVNTYLHWYQQKPGQAPRLLIYKVSNRFPGVPDRFSGSGSGTDFTLKISRVEAEDVGVYYCAQGTSVPFTFGQGTKLEIK
B8: H183/L072 VL R29W (antibody, name in Kabat numbering, V domains shown)
VH: QVQLVESGGGLVQPGRSLRLSCAASGFTFSNAWMHWVRQAPGKGLEWVAQIKDKGNAYAAYYAPSVKGRFTISRDDSKNSIYLQMNSLKTEDTAVYYCHYVHYASASTVLPAFGVDAWGQGTTVTVSS
VL: DIVMTQSPLSLPVTPGEPASISCQASQELVHMNWNTYLHWYQQKPGQAPRLLIYKVSNRFPGVPDRFSGSGSGTDFTLKISRVEAEDVGVYYCAQGTSVPFTFGQGTKLEIK
B9: H183/L072 VL R29Y (antibody, name in Kabat numbering, V domains shown)
VH: QVQLVESGGGLVQPGRSLRLSCAASGFTFSNAWMHWVRQAPGKGLEWVAQIKDKGNAYAAYYAPSVKGRFTISRDDSKNSIYLQMNSLKTEDTAVYYCHYVHYASASTVLPAFGVDAWGQGTTVTVSS
VL: DIVMTQSPLSLPVTPGEPASISCQASQELVHMNYNTYLHWYQQKPGQAPRLLIYKVSNRFPGVPDRFSGSGSGTDFTLKISRVEAEDVGVYYCAQGTSVPFTFGQGTKLEIK
B10: H183/L072 VL R54A (antibody, name in Kabat numbering, V domains shown)
VH: QVQLVESGGGLVQPGRSLRLSCAASGFTFSNAWMHWVRQAPGKGLEWVAQIKDKGNAYAAYYAPSVKGRFTISRDDSKNSIYLQMNSLKTEDTAVYYCHYVHYASASTVLPAFGVDAWGQGTTVTVSS
VL: DIVMTQSPLSLPVTPGEPASISCQASQELVHMNRNTYLHWYQQKPGQAPRLLIYKVSNAFPGVPDRFSGSGSGTDFTLKISRVEAEDVGVYYCAQGTSVPFTFGQGTKLEIK
B11: H183/L072 VL R54D (antibody, name in Kabat numbering, V domains shown)
VH: QVQLVESGGGLVQPGRSLRLSCAASGFTFSNAWMHWVRQAPGKGLEWVAQIKDKGNAYAAYYAPSVKGRFTISRDDSKNSIYLQMNSLKTEDTAVYYCHYVHYASASTVLPAFGVDAWGQGTTVTVSS
VL: DIVMTQSPLSLPVTPGEPASISCQASQELVHMNRNTYLHWYQQKPGQAPRLLIYKVSNDFPGVPDRFSGSGSGTDFTLKISRVEAEDVGVYYCAQGTSVPFTFGQGTKLEIK
B12: H183/L072 VL R54E (antibody, name in Kabat numbering, V domains shown)
VH: QVQLVESGGGLVQPGRSLRLSCAASGFTFSNAWMHWVRQAPGKGLEWVAQIKDKGNAYAAYYAPSVKGRFTISRDDSKNSIYLQMNSLKTEDTAVYYCHYVHYASASTVLPAFGVDAWGQGTTVTVSS
VL: DIVMTQSPLSLPVTPGEPASISCQASQELVHMNRNTYLHWYQQKPGQAPRLLIYKVSNEFPGVPDRFSGSGSGTDFTLKISRVEAEDVGVYYCAQGTSVPFTFGQGTKLEIK
B13: H183/L072 VL R54F (antibody, name in Kabat numbering, V domains shown)
VH: QVQLVESGGGLVQPGRSLRLSCAASGFTFSNAWMHWVRQAPGKGLEWVAQIKDKGNAYAAYYAPSVKGRFTISRDDSKNSIYLQMNSLKTEDTAVYYCHYVHYASASTVLPAFGVDAWGQGTTVTVSS
VL: DIVMTQSPLSLPVTPGEPASISCQASQELVHMNRNTYLHWYQQKPGQAPRLLIYKVSNFFPGVPDRFSGSGSGTDFTLKISRVEAEDVGVYYCAQGTSVPFTFGQGTKLEIK
B14: H183/L072 VL R54G (antibody, name in Kabat numbering, V domains shown)
VH: QVQLVESGGGLVQPGRSLRLSCAASGFTFSNAWMHWVRQAPGKGLEWVAQIKDKGNAYAAYYAPSVKGRFTISRDDSKNSIYLQMNSLKTEDTAVYYCHYVHYASASTVLPAFGVDAWGQGTTVTVSS
VL: DIVMTQSPLSLPVTPGEPASISCQASQELVHMNRNTYLHWYQQKPGQAPRLLIYKVSNGFPGVPDRFSGSGSGTDFTLKISRVEAEDVGVYYCAQGTSVPFTFGQGTKLEIK
B15: H183/L072 VL R54H (antibody, name in Kabat numbering, V domains shown)
VH: QVQLVESGGGLVQPGRSLRLSCAASGFTFSNAWMHWVRQAPGKGLEWVAQIKDKGNAYAAYYAPSVKGRFTISRDDSKNSIYLQMNSLKTEDTAVYYCHYVHYASASTVLPAFGVDAWGQGTTVTVSS
VL: DIVMTQSPLSLPVTPGEPASISCQASQELVHMNRNTYLHWYQQKPGQAPRLLIYKVSNHFPGVPDRFSGSGSGTDFTLKISRVEAEDVGVYYCAQGTSVPFTFGQGTKLEIK
B16: H183/L072 VL R54I (antibody, name in Kabat numbering, V domains shown)
VH: QVQLVESGGGLVQPGRSLRLSCAASGFTFSNAWMHWVRQAPGKGLEWVAQIKDKGNAYAAYYAPSVKGRFTISRDDSKNSIYLQMNSLKTEDTAVYYCHYVHYASASTVLPAFGVDAWGQGTTVTVSS
VL: DIVMTQSPLSLPVTPGEPASISCQASQELVHMNRNTYLHWYQQKPGQAPRLLIYKVSNIFPGVPDRFSGSGSGTDFTLKISRVEAEDVGVYYCAQGTSVPFTFGQGTKLEIK
B17: H183/L072 VL R54K (antibody, name in Kabat numbering, V domains shown)
VH: QVQLVESGGGLVQPGRSLRLSCAASGFTFSNAWMHWVRQAPGKGLEWVAQIKDKGNAYAAYYAPSVKGRFTISRDDSKNSIYLQMNSLKTEDTAVYYCHYVHYASASTVLPAFGVDAWGQGTTVTVSS
VL: DIVMTQSPLSLPVTPGEPASISCQASQELVHMNRNTYLHWYQQKPGQAPRLLIYKVSNKFPGVPDRFSGSGSGTDFTLKISRVEAEDVGVYYCAQGTSVPFTFGQGTKLEIK
B18: H183/L072 VL R54L (antibody, name in Kabat numbering, V domains shown)
VH: QVQLVESGGGLVQPGRSLRLSCAASGFTFSNAWMHWVRQAPGKGLEWVAQIKDKGNAYAAYYAPSVKGRFTISRDDSKNSIYLQMNSLKTEDTAVYYCHYVHYASASTVLPAFGVDAWGQGTTVTVSS
VL: DIVMTQSPLSLPVTPGEPASISCQASQELVHMNRNTYLHWYQQKPGQAPRLLIYKVSNLFPGVPDRFSGSGSGTDFTLKISRVEAEDVGVYYCAQGTSVPFTFGQGTKLEIK
B19: H183/L072 VL R54M (antibody, name in Kabat numbering, V domains shown)
VH: QVQLVESGGGLVQPGRSLRLSCAASGFTFSNAWMHWVRQAPGKGLEWVAQIKDKGNAYAAYYAPSVKGRFTISRDDSKNSIYLQMNSLKTEDTAVYYCHYVHYASASTVLPAFGVDAWGQGTTVTVSS
VL: DIVMTQSPLSLPVTPGEPASISCQASQELVHMNRNTYLHWYQQKPGQAPRLLIYKVSNMFPGVPDRFSGSGSGTDFTLKISRVEAEDVGVYYCAQGTSVPFTFGQGTKLEIK
B20: H183/L072 VL R54N (antibody, name in Kabat numbering, V domains shown)
VH: QVQLVESGGGLVQPGRSLRLSCAASGFTFSNAWMHWVRQAPGKGLEWVAQIKDKGNAYAAYYAPSVKGRFTISRDDSKNSIYLQMNSLKTEDTAVYYCHYVHYASASTVLPAFGVDAWGQGTTVTVSS
VL: DIVMTQSPLSLPVTPGEPASISCQASQELVHMNRNTYLHWYQQKPGQAPRLLIYKVSNNFPGVPDRFSGSGSGTDFTLKISRVEAEDVGVYYCAQGTSVPFTFGQGTKLEIK

Target: T1, Human CD3eg linker (human)
T1 construct: Single-chain construct; also called recombinant human CD3
T1 chain: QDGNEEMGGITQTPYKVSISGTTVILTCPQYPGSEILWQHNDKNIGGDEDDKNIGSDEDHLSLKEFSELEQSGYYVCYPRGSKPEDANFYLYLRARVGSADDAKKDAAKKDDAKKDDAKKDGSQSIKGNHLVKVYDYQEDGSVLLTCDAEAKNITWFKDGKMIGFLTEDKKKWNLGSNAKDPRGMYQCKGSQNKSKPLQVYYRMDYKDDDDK
Assay: SPR; fold vs parent H183/L072

Row | fold change of affinity | Binder
1 | 0.8 fold | B1
2 | 0.7 fold | B2
3 | 0.3 fold | B3
4 | 0.7 fold | B4
5 | 0.8 fold | B5
6 | 0.8 fold | B6
7 | 0.3 fold | B7
8 | 0.5 fold | B8
9 | 0.5 fold | B9
10 | 1 fold | B10
11 | 0.5 fold | B11
12 | 0.8 fold | B12
13 | 1.5 fold | B13
14 | 1.1 fold | B14
15 | 1.9 fold | B15
16 | 1.3 fold | B16
17 | 1.7 fold | B17
18 | 1.3 fold | B18
19 | 1.7 fold | B19
20 | 1 fold | B20
